Reference: the supplement of paper PMC7877785
± gives the uncertainty stated by the source.

Assay: self-splicing fitness, log relative to wild type (ln ratio); higher = more splicing; Tetrahymena group I intron in knt gene, E. coli kanamycin selection, DiMSum; sequences stand for … in CUCUCU…GGAGGGAAAAGUUAUCAGGCAUGCACCUGGUAGCUAGUCUUUAAACCAAUAGAUUGCAUCGGUUUAAAAGGCAAGACCGUCAAAUUGCGGGAAAGGGGUCAACAGCCGUUCAGUACCAAGUCUCAGGGGAAACUUUGAGAUGGCCUUGCAAAGGGUAUGGUAAUAAGCUGACGGACAUGGUCCUAACCACGCAGCCAAGUCCUAAGUCAACAGAUCUUCUGUUGAUAUGGAUGCAGUUCACAGACUAAAUGUCGGUCGGGGAAGAUGUAUUCUUCUCAUAAGAUAUAGUCGGACCUCUCCUUAAUGGGAGCUAGCGGAUGAAGUGAUGCAACACUGGAGCCGCUGGGAACUAAUUUGUAUGCGAAAGUAUAUUGAUUAGUUUUGGAGUACUCGUGGUCG
Procedure, shortened: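 Pooled colonies went to amplicon sequencing on an Illumina HiSeq 2500 after six replicate transformations. The plates were LB agar with 100 μg/mL carbenicillin, 50 μM IPTG and 0.2% rhamnose, with or without 25 μg/mL kanamycin, incubated overnight at 37°C or 30°C. The E. coli BL21(DE3) library had all eight P1ex-region intron nucleotides randomised, the intron placed in the knt kanamycin-resistance gene on pET-22b(+). DiMSum fitness is the error-weighted combination of replicate fold changes, kanamycin against none, normalised to wild type.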

Sequence	self-splicing fitness (ln) (30 °C)	self-splicing fitness (ln) (37 °C)
CACAAGCAAUAUUACGGUGG	-1.99 ± 0.05	-1.06 ± 0.062
CACAAGCAAUAUUACGUCCC	-2.13 ± 0.33	-1.07 ± 0.46
CACAAGCAAUAUUACGUCCU	-1.84 ± 0.12	-1.05 ± 0.15
CACAAGCAAUAUUACGUGUC	-3.86 ± 0.15	-1.63 ± 0.12
CACAAGCAAUAUUACGUGUU	-3.95 ± 0.12	-3.28 ± 0.13
CACAAGCAAUAUUACGUUGG	-2.5 ± 0.091	-1.76 ± 0.099
CACCAGCAAUAUUACGAAUU	-3.18 ± 0.15	-2.92 ± 0.17
CACCAGCAAUAUUACGACUC	-3.42 ± 0.21	-1.62 ± 0.18
CACCAGCAAUAUUACGAGAG	-0.95 ± 0.054	-0.673 ± 0.069
CACCAGCAAUAUUACGAUGG	-1.58 ± 0.06	-0.874 ± 0.079
CACCAGCAAUAUUACGCAUC	-2.88 ± 0.13	-3.35 ± 0.23
CACCAGCAAUAUUACGCGAA	-4.18 ± 0.21	-2.04 ± 0.12
CACCAGCAAUAUUACGCGAG	-0.893 ± 0.057	-0.594 ± 0.063
CACCAGCAAUAUUACGCGCA	-2.03 ± 0.084	-1.51 ± 0.085
CACCAGCAAUAUUACGCUAG	-1.49 ± 0.068	-0.153 ± 0.079
CACCAGCAAUAUUACGGAAC	-4.01 ± 0.17	-2.06 ± 0.14
CACCAGCAAUAUUACGGGCU	-4.86 ± 0.2	-2.8 ± 0.16
CACCAGCAAUAUUACGGUGA	-2.61 ± 0.095	-3.26 ± 0.15
CACCAGCAAUAUUACGGUGC	-3.89 ± 0.21	-1.81 ± 0.15
CACCAGCAAUAUUACGUAGG	-0.739 ± 0.05	-0.0785 ± 0.074
CACCAGCAAUAUUACGUCUU	-3.59 ± 0.12	-2.64 ± 0.15
CACCAGCAAUAUUACGUGGC	-3.65 ± 0.17	-2.98 ± 0.21
CACCAGCAAUAUUACGUGGG	-3.41 ± 0.095	-3.03 ± 0.12
CACGAGCAAUAUUACGAAAA	-2.14 ± 0.17	-2.66 ± 0.25

Sequence	self-splicing fitness (ln) (30 °C)	self-splicing fitness (ln) (37 °C)
CACGAGCAAUAUUACGAAAU	-2.18 ± 0.19	-2.81 ± 0.29
CACGAGCAAUAUUACGAAUG	-2.66 ± 0.11	-2.17 ± 0.16
CACGAGCAAUAUUACGACAG	-1.71 ± 0.078	-0.496 ± 0.095
CACGAGCAAUAUUACGAGAG	-3.14 ± 0.15	-2.18 ± 0.18
CACGAGCAAUAUUACGCAAU	-4.23 ± 0.19	-2.99 ± 0.16
CACGAGCAAUAUUACGCCAU	-2.82 ± 0.27	-2.55 ± 0.33
CACGAGCAAUAUUACGCUAG		-2.4 ± 0.28
CACGAGCAAUAUUACGCUCA	-2.85 ± 0.45	-2.42 ± 0.27
CACGAGCAAUAUUACGGAAG	-3.54 ± 0.21	-2.32 ± 0.2
CACGAGCAAUAUUACGGAGC	-2.87 ± 0.44	-0.87 ± 0.19
CACGAGCAAUAUUACGGAGG	-4.5 ± 0.36	-2.75 ± 0.28
CACGAGCAAUAUUACGGAGU	-4.82 ± 0.32	-3.69 ± 0.24
CACGAGCAAUAUUACGGAUG	-3.35 ± 0.16	-2.47 ± 0.16
CACGAGCAAUAUUACGGCAU	-3.23 ± 0.2	-3.52 ± 0.33
CACGAGCAAUAUUACGGUUU	-3.79 ± 0.33	-2.93 ± 0.36
CACGAGCAAUAUUACGUACU	-2.77 ± 0.16	-2.54 ± 0.27
CACGAGCAAUAUUACGUGCC		-3.4 ± 0.28
CACGAGCAAUAUUACGUUAA	-3.25 ± 0.22	-2.86 ± 0.22
CACUAGCAAUAUUACGAAAU		-1.38 ± 0.4
CACUAGCAAUAUUACGAAUU	-2.88 ± 0.19	-2.77 ± 0.23
CACUAGCAAUAUUACGACGA	-2.06 ± 0.16	-1.16 ± 0.17
CACUAGCAAUAUUACGACGG	-0.0504 ± 0.083	-0.117 ± 0.082
CACUAGCAAUAUUACGACUG	-0.3 ± 0.053	-0.0818 ± 0.071
CACUAGCAAUAUUACGACUU	-2.29 ± 0.15	-0.517 ± 0.12

Sequence	self-splicing fitness (ln) (30 °C)	self-splicing fitness (ln) (37 °C)
CACUAGCAAUAUUACGAGUA	-1.34 ± 0.096	-0.6 ± 0.076
CACUAGCAAUAUUACGAUAA	-3.35 ± 0.2	-1.59 ± 0.15
CACUAGCAAUAUUACGCGGA	-3.19 ± 0.25	-1.85 ± 0.18
CACUAGCAAUAUUACGGAAA	-1.99 ± 0.42	-1.42 ± 0.5
CACUAGCAAUAUUACGGACU	-2.87 ± 0.18	-1.13 ± 0.14
CACUAGCAAUAUUACGGAUG	-2.42 ± 0.083	-1.39 ± 0.079
CACUAGCAAUAUUACGGUCA	-0.522 ± 0.092	-0.198 ± 0.12
CACUAGCAAUAUUACGUAGC	-3.47 ± 0.19	-2.94 ± 0.23
CACUAGCAAUAUUACGUCAU	-5.15 ± 0.41	-2.79 ± 0.23
CACUAGCAAUAUUACGUCCA	-2.87 ± 0.22	-1.31 ± 0.16
CACUAGCAAUAUUACGUCGU	-3.39 ± 0.11	-1.76 ± 0.094
CACUAGCAAUAUUACGUCUU	-3.77 ± 0.3	-2.75 ± 0.26
CACUAGCAAUAUUACGUUGA	-3.56 ± 0.2	-2.24 ± 0.16
CAGAAGCAAUAUUACGAAAA	-4.31 ± 0.46	-2.65 ± 0.21
CAGAAGCAAUAUUACGAAAG	-1.29 ± 0.11	-0.392 ± 0.12
CAGAAGCAAUAUUACGAACU	-2.12 ± 0.13	-1.72 ± 0.17
CAGAAGCAAUAUUACGACAG	-0.805 ± 0.15	-0.248 ± 0.23
CAGAAGCAAUAUUACGAGUA	-3.2 ± 0.29	-1.66 ± 0.22
CAGAAGCAAUAUUACGAUCC	-2.81 ± 0.16	-1.93 ± 0.32
CAGAAGCAAUAUUACGCAAC		-2.39 ± 0.33
CAGAAGCAAUAUUACGCAAU	-4.46 ± 0.42	-2.79 ± 0.24
CAGAAGCAAUAUUACGCGCG	-0.373 ± 0.17	0.0448 ± 0.29
CAGAAGCAAUAUUACGCGUU	-3.09 ± 0.17	-3.61 ± 0.29
CAGAAGCAAUAUUACGGAGU	-3.56 ± 0.28	-3.14 ± 0.4

Sequence	self-splicing fitness (ln) (30 °C)	self-splicing fitness (ln) (37 °C)
CAGAAGCAAUAUUACGGAUC	-1.26 ± 0.11	-2.62 ± 0.17
CAGAAGCAAUAUUACGGGUG	-0.824 ± 0.064	-0.429 ± 0.08
CAGAAGCAAUAUUACGGUCG	-0.112 ± 0.075	0.395 ± 0.11
CAGAAGCAAUAUUACGUAAA	-4.01 ± 0.31	-1.73 ± 0.16
CAGAAGCAAUAUUACGUAAC	-3.85 ± 0.27	-2.26 ± 0.32
CAGAAGCAAUAUUACGUCCG	0.0183 ± 0.11	-0.0354 ± 0.13
CAGAAGCAAUAUUACGUCCU	-1.94 ± 0.18	-0.858 ± 0.16
CAGAAGCAAUAUUACGUGAC	-3 ± 0.22	-2.18 ± 0.21
CAGAAGCAAUAUUACGUGAU	-2.97 ± 0.14	-1.26 ± 0.11
CAGAAGCAAUAUUACGUGGC	-3.7 ± 0.16	-2.15 ± 0.15
CAGAAGCAAUAUUACGUUCU	-2.75 ± 0.11	-1.88 ± 0.1
CAGAAGCAAUAUUACGUUUC	-3.38 ± 0.29	-2.12 ± 0.23
CAGCAGCAAUAUUACGAAGU	-2.46 ± 0.14	-2.03 ± 0.24
CAGCAGCAAUAUUACGACAC	-2.83 ± 0.23	-2.45 ± 0.26
CAGCAGCAAUAUUACGACGG	-0.183 ± 0.064	0.472 ± 0.1
CAGCAGCAAUAUUACGACUC	-0.922 ± 0.091	-0.00599 ± 0.14
CAGCAGCAAUAUUACGAGUG	-1.54 ± 0.056	-0.155 ± 0.074
CAGCAGCAAUAUUACGAUGC	-4.05 ± 0.28	-2.89 ± 0.34
CAGCAGCAAUAUUACGAUGG	-0.264 ± 0.07	0.177 ± 0.092
CAGCAGCAAUAUUACGCAGG	-2.56 ± 0.12	-0.864 ± 0.11
CAGCAGCAAUAUUACGCCUA	-0.345 ± 0.076	0.522 ± 0.094
CAGCAGCAAUAUUACGCUGC	-3.06 ± 0.22	-2.36 ± 0.2
CAGCAGCAAUAUUACGGAUU	-3 ± 0.14	-1.64 ± 0.13
CAGCAGCAAUAUUACGGCAG	-0.983 ± 0.079	-0.261 ± 0.11
